Test results as given in patent US20230036481A1.

Key:
[1] = target: CD19 on Raji-Luc cells (CD19+ B cell lymphoma cell line) (human) (UniProt P15391); assay: cell-based or functional assay
[2] = target: tagged human CD19 recombinant protein (human) (UniProt P15391); assay: flow cytometry; transduced oNK cells stained with tagged CD19 recombinant protein and fluorescent anti-Myc antibody, after sorting
[3] = target: tagged human CD19 recombinant protein (human) (UniProt P15391); assay: flow cytometry; transduced oNK cells stained with tagged CD19 recombinant protein and fluorescent anti-Myc antibody, before enrichment

**Q.** What does the source list for “anti-CD19 chimeric antigen receptor (CAR) expressed on oNK cells (CAR19-oNK)”?
**A.** percentage of cytotoxicity (luciferase luminescence), E:T 0.2:1, 1 hour [1]: 13.9%; percentage of cytotoxicity (luciferase luminescence), E:T 0.5:1, 1 hour [1]: 45.9%; percentage of cytotoxicity (luciferase luminescence), E:T 1:1, 1 hour [1]: 64.1%; percentage of cytotoxicity (luciferase luminescence), E:T 2:1, 1 hour [1]: 80%; percentage of cytotoxicity (luciferase luminescence), E:T 5:1, 1 hour [1]: 91.4%; double positive of fluorescent signal of expressed Myc tag and bound human CD19 recombinant protein (% of cells) [2]: 82.3%; double positive of fluorescent signal of expressed Myc tag and bound human CD19 recombinant protein (% of cells) [3]: 9.06%
